Source: the RNAGym collection of RNA variant scans (doi:10.1073/pnas.2313332121)

B1: TPR t1 (parent)
chain: GACCAAUCUGCCCUCAGAGCUCGAGAACAUCUUCGGAUGCAGAGGAGGCAGGCUUCGGUGGCGCGAUAGCGCCAACGUCCUCAACCUCCAAUGCAUCCCACCACAUGAUGAUGCCUGAAGAGCCUUGGUUUUUUG

Variants of: B1
Assay: polymerase ribozyme fitness, log enrichment relative to wild type (log ratio); higher = more active; in vitro selection for triplet polymerase activity
In short: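 Input and output libraries were sequenced on Illumina after a single in vitro selection round, run in triplicate on PCR-built, transcribed mutant libraries of each subunit of a heterodimeric triplet polymerase ribozyme. Selection annealed libraries to a biotinylated primer, the partner subunit and triplets, incubated them frozen at −7 °C, then gel-excised extended constructs for streptavidin-bead capture and RT-PCR. Genotypes with ≥10 input reads and ≥1 read per output were kept. Fitness is the logarithm, taken in base 2, of genotype enrichment divided by wild-type enrichment, using inverse-variance-weighted replicate averages.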

Variant	polymerase ribozyme fitness (log ratio)
A108G G135U	-2.4
C101U U126G	-2.48
A105G G113U	-5.05
A103C C123A	-5.15
C101G U129G	-2.29
C101A C115G	-2.5
C101A U131G	-1.9
A111G G117U	-4.12
A111G G117A	-1.65
U106A C123A	0.524
C101A G113U	-3.79
U112A U126C	0.739
U112A U126G	0.0604
C102U C114A	-3.75
C102U C114G	-4.58
U106A C115G	-3.75
C104U G127C	-1.03
G113C U116G	-3.72
G113C U116A	-4.45
C102U C123A	-2.63
C102U C123U	-0.21
A103G U112C	-3.53
A105C C114A A121G	-3.08
A111C U112A	-1.52

Variant	polymerase ribozyme fitness (log ratio)
G107U G113U	-6.69
C104A C114A	-4.74
A105U G113C	-5.86
C101A U109A	-5.05
C101A G135U	-2.11
A105C G110A	-5.26
A105C G110U	-3.75
G110U G120C G127A G128U	-4.38
A103C A111U U116C	-4.99
A108G U125G	-2.24
C102U G120A	-1.2
U106G U112A G120C	-3.09
G107A C114U	-3.83
U106A U116C	-0.567
A111G A121C	0.741
C101U G120U	-1.36
C101U G120C	-0.354
A108C C123A	-4.12
A111U U116C	-4.01
C102A U126G	-2.89
U112A C123U	1.03
U112A C123G	0.872
G110A C114A	-6.15
G110A C114G	-6.64

Variant	polymerase ribozyme fitness (log ratio)
C102A U112A C115A U116G C124G U133C	-3.77
U106C U116A	-2.94
U112G C123U	0.561
U112G C123G	0.429
A111G U116G C124A U131G	-1.23
G110U A119U	-1.65
C102A C124A U130A	-0.438
G110C C114U	-4.33
A103U C114U	-4.99
U112C C124U	1.58
U109C U126A	-4.99
G107A	-4.86
G107C	-5.46
G107U	-4.78
C104U C115U	-0.334
A105C U133A	-2.08
C101A G110U A119G	-2.89
G110U U133C	0.02
G113C U129A	-3.5
A105G U109A	-5.94
G107A U132A	-5.08
U112C C124A G128A	0.254
A111C U112A C123G	-0.191
C104G C124U	-6.14

Variant	polymerase ribozyme fitness (log ratio)
C102U	-1.71
C102G	-5.93
C102A	-1.87
A105U U125A	-2.77
G110C A111G	-5.74
C104U C123A U125G	1.28
G113A G117A	-4.4
G110U G117A	-2.69
G110U G117U	-4.2
C104A C123G	-0.779
C104A C123A	-1.7
A103C G113C	-5.94
C101A G117C A121U	-4.18
G113A U129G	-1.7
A111C G128A	-1.07
A105C G120U	-2.25
A105C G120C	-1.78
A111U G120U	-4.5
A111U G120A	-3.85
U109C C124A	-1.7
G110U G127U	-1.57
G110U G127A	-2.05
C102G G120U	-6.6
G110C G127U	-2.52

Variant	polymerase ribozyme fitness (log ratio)
C102U G122A	-2.08
G107U G117C	-4.7
U106C C114A G120C	-2.21
C104U U129C	-0.415
U112A G122U U129C	0.27
G110C G120C	-4.2
U109C U130C	-5.04
U112G U133G	-0.442
A111C A121C	-0.386
U109C A121G C124A G127C	-3.66
G107U A121U U132A	-2.5
C104U A111G	0.178
G110A U129C	-1.47
G110C U112G	-4.99
G107A U133G	-4.3
G107A G120U	-4.71
U112G G128U	-2.4
U112G A121U	0.924
A108U U112C	-5.97
A108U U112A	-4.85
G113A A121G	-0.104
U112G C115A U126G	-2.63
C102A U106A C115A U129A	-4.5
G113C U116G U130G	-5.3

Variant	polymerase ribozyme fitness (log ratio)
C101A G107A	-5.93
A105U C115U	-1.94
A103U U130G	-5.63
A105G A121C	-0.542
G110C G122C	-5.25
C101U G113A	-1.2
G113A C124U	-0.971
G113A C124G	-0.302
G113A C124A	-1.44
A103G A118G C124G	-5.79
U106A U125G	-0.507
C102U U132C	-1.91
U106G U130G	-1.21
G110C U131C G135A	-2.51
A111G U130G	-0.2
A105U U112C	-1.65
G110C G113A	-6.42
C102A G128C U132G G135U	-3.41
G110C A119U	-1.71
U112A C114G	-0.0146
U109A U116G	-5.73
A111C G117A	-2
A105C U112C	0.139
C102A G110A	-4.38

Variant	polymerase ribozyme fitness (log ratio)
A103G C124U	-3.1
G110C U130G	-6.34
U106A	0.145
U106G	-1.17
U106C	-0.282
G107A U130G	-6.83
G110U C115A U129C	-3.17
G113A C114G	-1.96
C104U G122A	0.442
C101G A121C	-0.583
A105C G128C	-3.71
G113U C114G	-2.89
A105C U116C	-4.81
A105G U132A	-1.89
C101A U130G	-2.8
C101G G135U	-2.44
G110A U116G	-3.5
G110U A111G G113C	-2.46
A108G U109A C124A	-4.41
G113A U126C	-0.83
A105C U130C	-1.55
G110U G122U	-2.07
G110U G122A	-2.47
